Measured values: a protein production outcome set (Wang et al. 2014)

assay: label from the status in PepcDB records

Row | Sequence | protein production
1 | MTQHQTLPQTTEGAYHYQVIRRAIELIDQTDQPISLDEIAANMGMSPAHFQRVFSRWVGVLEHHHHHH | not failed
2 | MTQKEISIIHPRPSSIVAALYTLRDLNVDVAILHGPPGCSFKHARLLEEDGIHVVTTGLDENGFVFGGHDKLVQVINKSIELFNPKILGVVGTCASMIIGEEMHEAVLEANPDIPVIEVEVHAGYHNNTKGVIFALESALDAGIIDHKEFERQEYLLQKATEVEKKFGAASKEYLAPSRGDVKYKVAKRLVELLKEGKKGLVIMNAKKETGYMFADITLAVNEVAEALGKKENLVNMANIDPELGLPRVRQHAEYIMRDFKAHGVEIHEIIGGMDEYPVAGEKVSELIKEKYSDYDFAVITGVPHAVPMENIGHMELISITNGPRQVLPLKEMGHEHVMVEIDLHPKTLGVSQIVESEFGATLREVAKEA | failed
3 | MTQKFGLSAALTTPFKTDGTVDIDAMIAHARRCLSNGCDSVTLFGTTGEGCSVGSRERQAILSSFIAAGIAPSRIVTGVLVDSIEDAADQSAEALNAGARNILLAPPSYFKNVSDDGLFAWFSAVFSKIGKDARDILVYNIPSVTMVTLSVELVGRLKAAFPGIVTGVKDSSGNWSHTERLLKEHGDLAILIGDERDLARGVRLGGQGAISGVANFLTQEVRAMAVDGKDDPRIVDLVVELLKFPVTPAVKVLVSHTTGETIWSDVRAPLVAISPEDRRQIEGAFDALFRRQAA | not failed
4 | MTQKTGALIFDETADRYDIRFDLNDYYGGLHCGDCLEVFVRGKWKPTRMEYGDNWYLVGVRASDLNGLRVRILEHHHHHH | failed
5 | MTQPEETPVSFIPSNFIEKGKILNGTFDIRNAIESIVLSLAIGIPVFHLPLSLTARIIILCMTALPAAMVALIGIGGESITAFLMNALRFVVNRRVIWRSDSLPEGKPRRKPRFKEPKTKKHRKAEKMAEPSKVMASAPPQSEPDAPAPPKSKKKEHRQFDTSTKRGIKKQAKEDIRYLKWEQKEASRQKKEAAKQIKIQKKTEARRRKEEEKRAVSEKRAAKKEQKKKVVSKEDTSSATSKPVSRKKRKKDQTLEDYLPVEKIANGIVYTTDGRYVKILEIEPINFLLRSAREQQGIIYSFISYLKISPVKLQIKMISKKADINKHLEQSQLELERETDPHCQELQRDYIQFVQNLSSREAVSRRFFLIFEYEPFNANRKEEEREILAALETASQTAKTFLYQCGNEVVSHDNEDEFTTDVLYTLLNRTLCTEVPLSNRISTVLSAYTKENRMEELDHIRINEFLAPESVDFKHSHYVQINGLYHSYLLVPSDGYKNRVTPGWLSLLVNAGEGIDIDFFLQKQPKDKIQQRLGQQIRINRSKLKDASDTNTDYDDLDSAIRSGYFLKQGLANNEDFYYMNLLITITASTLEELQWRIQEMKKLLISQDMNLHSCYFLQEQGFLSSLPLANLDKKLFKLSKRNVLTSGAASCYPFVSYSICDDNGILFGVNKHNNSLVIADIFDSRQYKNSNICILGCSGAGKTFTMQTMALRMRRKGIQVFIIAPLKGHEFYRAARNVGGEFIQISPASKNCINIMEIRKVDNSVNELLDGPTLDASALAGKIQRLHIFFSLLIPDMSHEEKQLLDEALIKTYARKGITHKNESLTDPQHPEQYKKMPILEDVYNVLLESEDTKRLAHILNRLVHGSASSFNQQTNVDLTNKYTVLDISELTGSSDLLTVGMFVALDYVWDKAKENRTEEKAIFVDEVWQLIGASSNRLAAEFVLEIAKIIRAYSGAGIFATQDLNDFFALDDGKYGKGIINNCKTKIILNMEDEEAQRVKTILHLSETEVMNITHFQRGNGLISTNNNNITVEFKASNLEKELITTERQELLEILAKQKKQAV | failed
6 | MTQQDFRTKVDNTVFGVRATALIVQNHKLLVTKDKGKYYTIGGAIQVNESTEDAVVREVKEELGVKAQAGQLAFVVENRFEVDGVSYHNIEFHYLVDLLEDAPLTMQEDEKRQPCEWIDLDKLQNIQLVPVFLKTALPDWEGQLRHIHLEE | not failed
7 | MTQSQTNDGAGAGAVTTVESVPPQPQSQPQPQPQQQSNEMVLHTGSLSFSSHMSREDEEMTRSALSAFRAKEDEIEKRRMEVRERIQAQLGRVEQETKRLSTIREELESMADPRIWPSELESMADPMRKEVSVVRKKIDSVNKELKPLGSTVQKKAEQNSIFGNEMKQEREYKEALDTFNEKNREKVQLITKLMEMEQLVGESEKLRMIKLEELSKSIETV | not failed
8 | MTRADCRSRLMEVATELFAQKGFYGVSIRELAQAAGASISMISYHFGGKEGLYAAVLQEQFACFGQLDDIRGQAGDPLAVMTAYLRWTIQRHRNNPQLLRFYTSELTNPTPCFAAIVSPAIASVIRLLAESIEAGMTRGLFRRDLHAVNSALALAGMVNYFFLSTLATEGLTSHSPDQDEELIRQYVAIFTRGIMADGGAAPA | not failed
9 | MTRAINDPGNEDPGSLLETDADALLGGAAAQAPEERCRLAAQACIRACERYLALCTESSREQRQHAGDCADLCRLAALLLERRSPWAPAACELAARYALACAERCDGDEPLERECAGACRRFVEACRPLLPA | not failed
10 | MTRFIHTADWQIGRQYGQFDSDDAAVLAEARLEPVARIAAQASELAVDAVLVAGDVFDTQSVSDRTIRRLFGAMQAYEGPWVLIAGNHDAALADSVWSRARRLECIGTNVHVPQDTAAVELPLAGLAVLAAPLTQRHTYDDVTAAFDTMDSAAGLVRVGLAHGSVADRLPEQADAANPIAPDRAQRARLDYLALGDWHGCLRIDERTWYAGTPEPDRFRGNAPGYALLVEVAAPGAPPQVRQLEVGKYRWSHWVERLDLASDAEDLGHRLAGLQAGDVLRLELHGALSLARRWDALRRDVERAAARVRALVADSAGLVLEPDAADLAALSVDGYVGAAAARLQAMQGDGAQAAAARVALRLLLQYQRELAEGAS | failed
11 | MTRIAIALAQDFADWEPALLAAAARSYLGVEIVHATPDGMPVTSMGGLKVTPDTSYDALDPVDIDALVIPGGLSWEKGTAADLGGLVKRFRDRDRLVAGICAAASALGGTGVLNDVAHTGNALASHKAYPAYRGEAHYRDQPRAVSDGGVVTAAGSAPVSFAVEILKSLGLFGPEAEAELQIFAAEHR | not failed
12 | MTRIAIVGAGPAGLSLAYFLKGSRKVEATVYESMPEPGLKPCAWGLITGIENIIPIPNETIISEIRGFRIYLDNKLVFDIRTDNKLGYIIDKPLFLKRLSQEVNVEFNSKVVKKDDKYYINDKSLDHDKVIFATGHYSVSKSMSIPAIQYITDYEIDKEVVEFYFYSGFLGYAWVFPDREGSKIGIGGYAEVPELKERLKQILKGRIRTFHGARVTDYGVIEDRLDGNYTGEALGTVYAITGEGIRPSIISSKILADSILNRKDFKKEFKKSKLYWSLNWHAKIIKMTKENDPGTARLSKALLNNDPQLILKFAIGEFNRVDLIKIFGRSLILEHHHHHH | not failed
13 | MTRLNELWELYFQTLDKSTSWTFTKESFYNRYLKEPLGKKKLDSIQEHHIMAIIRHLQAEGMATRTVNTTLEILRPLFDFAIKNKALRDNPTRFIVLKKDNLEHHHHHH | failed
14 | MTRMKMFKLWMVVMLLGLLPIVSEAQEEINNAINVQLEYLKKYPKDKEALRKVSFLYLNKADYDQAIFYGRQLFELGYNERDYNGAVIYSHICLGQAHMMKGNVKEAYSHLGQARLIGESNKNDSALCSVYNGLGLYASNVQKDYYRSLTYFFKGVEAARRCHYDRLYSILLSNIAGIYYLKNDSTGLKYALECYELGHERKDPYLIYSGSTNTAYMYYLKSDYNTALKYIQEAEFTMVQNDFYDQSNVYNLYGYILHKLNKDDEALVFFRKALDLKEQGNISSVMNSYLGYAEILMEHHQYDRAVRMLKAGIELSYQQANAIYRSDLLKALSRCYEEDGMLVEALKYHKLYQLETDSLYNAEKERAVGEIRAKYDMERQENEIKQNRLELLEKENKMQLLIAGFICIFIAASLLYYLYYRKNKLYLTIVKQNQDAIRREQQLQNKIDEQFAEIGRQSALLQEYLTDSTKTSLPQPEKYASSSLTDEKKQDLFLRLETLLWEEKVFTDNLLTKEKVAEMLGTNRTYLSQIINEQTKQTFTQFVNGFRTKEAVRLLSDPDNQTPLKAISAELGFNSMTTFYSQFQAATGMTPAQYRNKVQELHKNR | failed
15 | MTRPIGIYEKATPKHFNWLERLQFAKELGFDFVELSIDESDERLARLEWSKEERLELVKAIFETGVRVPTITFSGHRRFPMGSNNPEKEARAMDMMKKCIVFAQDIGIRNIQLAGYDVYYEEKSPETRARFIKNLRQACTWAEEAQVILSIEIMDDPFMNSIEKYLAVEKEIDSPYLFVYPDTGNVSAWHNDLWSEFYNGHRSIAALHIKDTYAVTETSKGQFRDVPFGQGCVDWEEMFAVIKKTNYNGPFLIEMWSENCETVEETRAAIKEAQDFLYPLMEKTGVK | failed
16 | MTRSERKPLLMLMVNMFVVMMGIGLVIPILPYYIEAFGASSVELGLLIAIFSFMQFLLAPFWGRLSDKVGRKPLIAVGMFGFAVAEFIFAFATQFWMLFVSRILAGAFGSAVMPAAMAYVSDRTSEEKRGHGMGLLGASMALGIVVGPGIGGWLAEFSLATPFLFAGFAASFAAIFSLLWLPESLPLEKRKTEVEPVNQFVQMWQAVRSPIGFLLFLVFGLSFGLANFQTIFGIFALHRFHYNPSEVGFIMVLTGIVGAIAQGSLVGRLTERYGEEKVVLGSLSLSGIGFLIMMLAFNYWTVIATTCLFFLGNSILRPAVQSFLSKMAGDQQGMIMGLNNSILSLGNVVGALLAGLLFEWNMFLPYTVGAFVMFASLGATFRWLSKRASQGKHPEKSSP | failed
17 | MTSAAEITAAVRQLYNTYPFPPEPLLDEPPPGYNWRWSWPAAYSFCTGRYPSQLDVAILDAGCGTGVGTEYLAHLNPQAKITALDLSEAALAIACERCRRSGATNVQFHHLSLEEVAQLGQTFQMINCVGVLHHLPEPQRGIQALADVLAPGGIVHIFVYGEYGRWEIKLMQQAIALLQGSDRHNYREGVAIGRQLFAALPENNRLKKREQERWSLENQRDECFADMYVHPQEIDYTIASLFELIRASGLEFIGFSNPQVWQLERLLGSQPELLQRAQQLDPIQQYQLIECLDPEAMTHFEFFLAKPPLPRHDWAADRELLAAIPWRHPCIDGWPGACVFNCHYEVIHLNQAEQEFLNAASGKATVAELLAQQPDFNLAEVRSLLARHLLLLGVKELEHHHHHH | failed
18 | MTSCTIIDATDRSIRQTLGETSTLARLIWVDAGLASPPLCSGLARCGRCRVRITEAAPAPHEDDREFFSAEDISAGWRLACRHAPAHGMVVHVPLEHHHHHH | not failed
19 | MTSDGATSTSAAAAAAAAAAARRKPSWRERENNRRRERRRRAVAAKIYTGLRAQGDYNLPKHCDNNEVLKALCVEAGWVVEEDGTTYRKPLPGEIAGTSSRVTPYSSQNQSPLSSAFQSPIPSYQVSPSSSSFPSPSRGEPNNNMSSTFFPFLRNGGIPSSLPSLRISNSCPVTPPVSSPTSKNPKPLPNWESIAKQSMAIAKQSMASFNYPFYAVSAPASPTHRHQFHTPATIPECDESDSSTVDSGHWISFQKFAQQQPFSASMVPTSPTFNLVKPAPQQMSPNTAAFQEIGQSSEFKFENSQVKPWEGERIHDVGMEDLELTLGNGKARG | failed
20 | MTSKRKRWTAQAAKLPSPMGGLALAIASLGWTWESVMPSLNGWGQLTGAMIASALLLMLTGKFLLHPTVLKNELSHPVIGSVIPTFAMALMVVSNLLGHYFPHAGLALWLGAIAIHVVFLGAFIYYRAIDFKLEHMVPSWFVPPIGIIVAAVSFPSNGEPWLVNTILAFGMLAYLIMLPLMLYRLIFCQAIPDAAKPTIAILAAPASLSLAGYLTVCEQPSIAVVAILVSIAILMTSVIYLAFFHLLKLPFSPGYAAFTFPMVIGATALFKTAHWLEQFSQMAELTEWVRLLADFELGVATIVVAYVALRYLTHYVPNPVENIGSTTSVQLK | failed
21 | MTSLPQISTLMREKSVENKLKVKAKDDHMVPSGLYEVRAIQLPGGSWRHYYVDHSSKETYWILPYSHPDGASSHPLEKLPVYLPSYEECVDETNPLAVPEVCSPARD | not failed
